Measurements published in publication doi:10.1101/2024.11.23.624830 (bioRxiv, 2024).

Target: the molecule itself
Experiment: single-molecule photobleaching step analysis

B1: EmrE with a TC-tag (natural protein)
chain: MNPYIYLGGAILAEVIGTTLMKFSEGFTRLWPSVGTIICYCASFWLLAQTLAYIPTGIAYAIWSGVGIVLISLLSWGFFGQRLDLPAIIGMMLICAGVLIINLLSRSTPH
modifications: FlAsH dye bound covalently to the tetracysteine tag
  stoichiometry N: 2
